The subject of one series is SCP2 cells. Kind of series: SCP2 bone metastasis in mice (intracardiac injection). In kind it is in vivo, mouse. How it is done:
For bone metastasis study was performed as previously described. Briefly, athymic Balb/c mice were anesthetized and 10^5 cells in 100 μL phosphate-buffered saline (PBS) were injected into the left cardiac ventricle. Peptides were administrated intravenously into the mice (n = 10 per group) at a dose of 1 mg/kg/day. The control mouse group were administered with same volume of peptide solvents. The metastatic burden was measured by bioluminescent imaging (BLI) with a NightOWL II LB983 Imaging System (Berthold). The osteolytic area was analyzed by the SkyScan 1076 In vivo X-ray Microtomograph (Bruker). The sections of hind legs of the mice was used for H&E, TRAP and immunohistochemistry staining.

In series [1] the test system is RAW264.7 cells. Nature of the series: RAW264.7 osteoclastogenesis assay. Format: cell-based, mouse. How it is done:
(§1) Primary bone marrow cells were harvested by flushing the cavity of tibia and femur from 5-6 week old Balb/c mice. Erythrocytes were removed by treating cell suspension with the Red Blood Cell Lysing Buffer (R7757, Sigma) for 5 min. The remaining cells were cultured in α-MEM (A1049001, Gibco) supplemented with 10% FBS and 5 ng/ml M-CSF for 12 h. Non-adherent cells were transferred into a 24-well plate and cultured in α-MEM supplemented with 10% FBS, 25 ng/ml M-CSF and 25 ng/ml RANKL for another 5 to 6 days. Cancer cell CM was mixed with α-MEM at a ratio of 1:3. CST6 protein, peptides or other drugs at indicated concentrations were administrated into the culture medium. For assessment of osteoclast differentiation, cells were stained using the Acid Phosphatase TRAP staining kit (387A, Sigma) as previously described. For RAW264.7 osteoclastogenesis assay, 700 cells per well were added into a 96-well plate and cultured in the same medium as shown above except that M-CSF was not essential. 7 ug/ml CST6 antibody (MAB1286, R&D) was used to neutralize recombinant human CST6 in RAW264.7 osteoclastogenesis assay.

For a further series, the system named is SPHK1. Kind of series: Intracellular SPHK1 protein level in RAW264.7 (Western blot). Format: cell-based, mouse. Conditions: Fig. 3B. The text has this:
SPHK1 is cleaved by CTSB [20], and more importantly, SPHK1 can negatively regulate osteoclast differentiation by phosphorylating sphingosine into sphingosine-1-phosphate (S1P). Concordantly, we observed that Ctsb knockdown increased SPHK1 expression in primary bone marrow cells (Fig. 3A). […] Similarly, Sphk1 knockdown could also recover osteoclastogenesis of RAW264.7 that was suppressed by the treatment of CST6 recombinant (Fig. 3G, H).

Series [2] relates to murine primary bone marrow cells. Kind of series: Osteoclastogenesis of primary bone marrow cells (TRAP staining). In kind it is cell-based, mouse. Conditions: n = 3 independent experiments; for osteoclast differentiation of primary bone marrow cells: 10 μM inhibitor, Fig. 2F. How it is done: as §1
A further series can be described thus: Chronic toxicity assay. In kind it is in vivo, mouse. Conditions: 10 mg/kg CA-074 for 8 consecutive days, nude mice, n = 9 per group; Fig. S6B. How it is done:
[…] The body weights of the mice were measured. […] Mice were sacrificed and organs were harvested for weight measurements and H&E staining to observe the pathological changes.

For series [3], the system named is RAW264.7 cells. Kind of series: Internalization of His-tagged CST6 protein by RAW264.7 (Western blot). In kind it is cell-based, mouse. The note with it: RAW264.7 cultured with CST6-His and various concentrations of Dynasore; Fig. 2K. How it is done:
Cathepsins are lysosomal proteases and function only intracellularly in acidic environment. To verify that extracellularly derived CST6 could inhibit the intracellular CTSB activity of osteoclasts, RAW264.7 cells were cultured in the medium containing recombinant CST6 protein and the cell lysates were collected for CTSB activity analysis after phosphate-buffered saline (PBS) washing of the cells. […] Since osteoclasts are active in endocytosis, it is likely that exogenous CST6 is transported into osteoclasts via endocytosis. Indeed, we observed a co-localization of CST6 that entered the cells with the lysosome marker LAMP1 (Fig. S3B). […] Endocytosis inhibition also rescued the CST6-suppressed osteoclastogenesis of RAW264.7 cells (Fig. 2L).

In another series the test system is p38. Kind of series: Phosphorylation of p38 in RAW264.7 (Western blot). Format: cell-based, mouse.
In the next series the target is T1, CTSB (Mus musculus, UniProt P10605).
T1 construct: endogenous in cells; host or cells: RAW264.7
Nature of the series: Intracellular CTSB activity of RAW264.7 after treatment. Format: cell-based. The note with it: 32 nM CST6 protein in medium, lysates after PBS washing; Fig. 2I. How it is done:
Cathepsins are lysosomal proteases and function only intracellularly in acidic environment. To verify that extracellularly derived CST6 could inhibit the intracellular CTSB activity of osteoclasts, RAW264.7 cells were cultured in the medium containing recombinant CST6 protein and the cell lysates were collected for CTSB activity analysis after phosphate-buffered saline (PBS) washing of the cells. […] Since osteoclasts are active in endocytosis, it is likely that exogenous CST6 is transported into osteoclasts via endocytosis. Indeed, we observed a co-localization of CST6 that entered the cells with the lysosome marker LAMP1 (Fig. S3B). […]
Enzymatic activities of cathepsins were analyzed with the fluorometric kits of CTSB (K147, Biovision) and CTSL (K161, Biovision) according to the manufacturer's protocol. The LGMN activity was analyzed as previously described with minor modifications of the protocol. […] After three freeze-thaw cycles at -80 °C, the cell lysate was centrifuged at 10000 g for 15 min and the supernatant was transferred into a new tube followed by protein quantification. […] After adding 1 μL substrate Z-Ala-Ala-Asn-AMC (I1865, Bachem) into each well with a final concentration of 10 μM, fluorescence measurements were performed every 5 min at 37 °C using a BioTek's Synergy™ Mx Microplate Reader with a 360 nm excitation filter and a 460 nm emission filter. […]

The nature of series [4]: Pharmacokinetic assay, circulation half-life. Conditions: Balb/c mice, 1 mg/kg intravenous, serum 0.25-4 h, ELISA (CST6 or His-tag), one-phase decay model; n = 4. Format: in vivo, mouse. How it is done:
For pharmacokinetic assays, CST6 protein or His-tagged peptides were administrated intravenously into Balb/c mice (n = 4 per group) at a dose of 1 mg/kg. Blood samples (100 μL) were collected using capillary at 0.25 h, 0.5 h, 1 h, 2 h, 3 h and 4 h, respectively. After 1 h at room temperature, the serum samples were obtained from the supernatant by centrifugation at 3000 rpm for 15 min. The CST6 content in serum was analyzed with CST6 ELISA kit (Sino Biological, 10438). The peptide content was analyzed with the His-tag ELISA kit (GenScript, L00436) according to the manufacturer's instruction. Blank serum samples from mice without protein/peptide administration were used as control. Standard curves for each protein or peptide were generated with standard samples of known concentrations to calculate the protein/peptide concentration in blood samples. The data for all peptides were fitted with the one-phase decay model using Prizm software (GraphPad Software) to calculate the half-lives.

Series [5] relates to RAW264.7 or primary bone marrow-derived osteoclasts. Nature of the series: Viability of osteoclasts after CST6 recombinant protein treatment. Conditions: n = 4 independent experiments; Fig. S1E. In kind it is cell-based, mouse.
The next series can be described thus: Acute toxicity assay. In kind it is in vivo, mouse. Conditions: Balb/c mice, intravenous, death counted after 24 h, n = 5 per group. How it is done:
For acute toxicity assays, Balb/c mice (n = 5 per group) were intravenously injected with the indicated protein or peptides at doses of 150, 200, 250, 300, 350 mg/kg. The death of mice was counted after 24 h. The median lethal dose (LD50) was calculated using the Bliss method.

In a further series the test system is SCP2/SCP4 tumor cells. Nature of the series: Tumor cell growth after CST6 recombinant protein treatment. Format: cell-based. Conditions: 32 nM, n = 4 biological repeats, Fig. S1F.
The nature of series [6]: Tissue distribution by CST6 immunohistochemistry. In kind it is in vivo, mouse. The note with it: week 5 of 1 mg/kg/day, Fig. S6A. How it is done: We then performed pharmacological evaluation of CST6 protein and peptides.
Supplementary Figure 6. Pharmacological evaluation of CST6 recombinant protein and CA-074.
(A) CST6 immunohistochemistry in various organs at week 5 after administration of 1 mg/kg/day CST6 peptides. The lung section from un-treated mice was used as negative control of the assay. Dotted lines denotes areas of bone metastasis. Scale bar, 150 μm. (B) The body weights of nude mice after treatment of 10 mg/kg CA-074 for 8 consecutive days (n = 9 mice per groups).
(1 picture or pasted object on this page, not shown here)

[7] abbreviates: nude mice with SCP2, 1 mg/kg/day intravenous, n = 10 mice per group.

Where a SMILES comes first, the peptide text is derived from it. The star is where a group is joined. Cbz = O=C(OCc1ccccc1)*; CHN2 = [N-]=[N+]=C*; tBu = CC(C)(C)*

T1 sequence (P10605 80-339): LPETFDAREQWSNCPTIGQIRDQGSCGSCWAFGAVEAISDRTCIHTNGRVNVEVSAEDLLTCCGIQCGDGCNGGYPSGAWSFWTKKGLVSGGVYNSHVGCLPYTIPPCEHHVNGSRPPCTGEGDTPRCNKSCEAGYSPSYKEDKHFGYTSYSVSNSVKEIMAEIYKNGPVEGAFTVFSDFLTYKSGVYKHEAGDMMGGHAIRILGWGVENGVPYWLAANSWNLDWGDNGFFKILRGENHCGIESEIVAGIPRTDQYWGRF
Description for p38: To further validate the involvement of p38 signaling in CST6-suppresesed osteoclastogenesis, the p38 inhibitor SB203580 was used to treat RAW264.7 cells that were cultured in cancer cell CM.

In the case of `CC(C)C[C@H](NC(=O)[C@H](Cc1ccccc1)NC(=O)c1cnccn1)B(O)O` [Bortezomib, reference compound], the “body weight of metastasis-bearing mice” value with SCP2 cells (nude mice with SCP2, 1 mg/kg/day, Fig. 5F, Fig. S5B (week 5)) was “but not Bortezomib, recovered the body weight of mice”.

For `CCCNC(=O)[C@H]1O[C@@H]1C(=O)N[C@H](C(=O)N1CCC[C@H]1C(=O)OC)[C@@H](C)CC` [CA-074Me], in the series with RAW264.7 cells [1] (treatment with Z-FY or CA074Me, n = 3 independent experiments, Fig. 2G), the “osteoclast differentiation of RAW264.7 cells” value is “able to inhibit osteoclast differentiation”. Also, the “intracellular SPHK1 protein” value in the series on SPHK1 is listed as “stabilized the intracellular SPHK1 protein in a dose-dependent manner”. Besides, the “osteoclast differentiation of primary bone marrow cells” value in series [2] was “able to inhibit osteoclast differentiation”.

In the case of `CCCNC(=O)[C@H]1O[C@@H]1C(=O)N[C@H](C(=O)N1CCC[C@H]1C(=O)O)[C@@H](C)CC` [CA-074], the “body weight of mice” value in “Chronic toxicity assay” is “caused apparent body weight loss of the mice”.

Turning to `O=C(N/N=C/c1ccc(O)c(O)c1)c1cc2ccccc2cc1O` [Dynasore], in the series on RAW264.7 cells [3], the “effect on intracellular accumulation of CST6” value was “reduced the intracellular accumulation of CST6 in a dosage-dependent manner”.

With `C[S+]([O-])c1ccc(-c2nc(-c3ccncc3)c(-c3ccc(F)cc3)[nH]2)cc1` (stereo not drawn) [SB203580, reference compound], in the series with p38 (RAW264.7 with RANKL and CM from CST6-knockdown or control SCP4, opposite to enhancement, Fig. 3K), the “CM-induced p38 phosphorylation” value is “showed the opposite effect”. The “CM-induced osteoclast maturation of RAW264.7” value in the series with RAW264.7 cells [1] (RAW264.7 with RANKL and CM from CST6-knockdown or control SCP4, opposite to enhancement, Fig. 3L) was “showed the opposite effect”.

Consider `CC(C)(C)Oc1ccc(C[C@H](NC(=O)[C@H](Cc2ccccc2)NC(=O)OCc2ccccc2)C(=O)C=[N+]=[N-])cc1` [Z-FY(t-Bu)-DMK] (Cbz-Phe-Tyr(tBu)-CHN2), for which the “osteoclast differentiation of primary bone marrow cells” value in [2] is given as “but not the CTSL inhibitor Z-FY(t-Bu)-DMK, was able to inhibit osteoclast differentiation”.

B1: CST6: human CST6 recombinant protein expressed in E. coli, type 2 cystatin, inhibitor of cysteine proteases (protein, UniProt Q15828 29-149, looked up)
Cystatin-M: RPQERMVGELRDLSPDDPQVQKAAQAAVASYNMGSNSIYYFRDTHIIKAQSQLVAGIKYFLTMEMGSTDCRKTRVTGDHVDLTTCPLAAGAQQEKLRCDFEVLVVPWQNSSQLLKHNCVQM
modifications: His tag
On to B1, for which the “intracellular CTSB activity of RAW264.7” value with CTSB is on record as “inhibited the intracellular CTSB activity of RAW264.7”. The p38 activation entry in the series on p38 (RAW264.7, Fig. 3B) is recorded as “inhibited p38 activation”. Moreover, the “bone metastasis (BLI)” value in the series with SCP2 cells (nude mice pre-inoculated with SCP2, 1 mg/kg/day intravenous, n = 10 mice per group) was “efficiently alleviated bone metastasis”. Also, in the series with SCP2 cells (setting [7]), the “osteoclastogenesis and bone destruction in metastases (TRAP+ cells, micro-CT)” value is “reduced osteoclastogenesis and bone destruction”; the “survival of the mice” value is given as “extended survival of the mice”. In [4], the Half-life worked out at 10.48 min. Further, the “expression of marker genes of osteoclastic differentiation (Caclr, Nfatc1, Acp5, Ctsk, Fos)” value with RAW264.7 cells [1] (RAW264.7, n = 3 biological repeats, Fig. 1J) is “downregulated”. Besides, in the series with RAW264.7 cells [1] (cultured with RANKL, 32 nM human CST6 protein, Fig. 1I), the “osteoclastic differentiation of RAW264.7 cells” value is “inhibition of osteoclastic differentiation of cells”. Besides, the viability of osteoclasts result in [5] is “did not affect the viability of osteoclasts”. Further, the median lethal dose (LD50) in “Acute toxicity assay” (150-350 mg/kg, Bliss method) stood at 322.00 ± 117.10 mg/kg. Further, the MTD in “Acute toxicity assay” was determined as 200 mg/kg. In addition, the “intracellular SPHK1 protein” value in the series on SPHK1 is “stabilized the intracellular SPHK1 protein in a dose-dependent manner”. Moreover, in the series with SCP2/SCP4 tumor cells, the “growth of tumor cells” value is “did not directly affect the growth of tumor cells”. The “osteoclastogenesis of primary bone marrow cells” value in series [2] (RANKL-containing medium, 5 to 6 days, TRAP staining, indicated concentrations) is recorded as “significantly suppressed RANKL-induced differentiation of bone marrow cells into osteoclasts in a dosage-dependent manner”. Further, the “tissue distribution of administrated protein” value in series [6] was “mainly distributed in liver, kidney, intestine, spleen and bone metastasis foci”.

These data come from PMC8581426, “CST6 protein and peptides inhibit breast cancer bone metastasis by suppressing CTSB activity and osteoclastogenesis” (Theranostics, 2021).
